Measured values taken from patent US11464867B2, “Multimeric elastin-like polypeptides” (University of Southern California, priority 2018, dated 2022).
Several values for one entry are separate records, joined by “and”; a condition that tells them apart may be missing. Equal values may be shown once. Entries after “also recorded” stand apart in the source; their conditions may differ.

Assays:
[1] = Phase transition temperature by optical density (UV-Vis, 350 nm) versus temperature; assay type: physicochemical; settings: mean ± 95% CI, Table 2
Experimental: The temperature with the maximum positive slope was defined as the phase transition temperature for each condition. (FIG. 2B) The concentration-temperature phase diagram was determined for both ELPs, and fit to the following equation: Tt=b−m Log10[CELP].
Both ELPs at different concentrations (5 μM to 100 μM) were subject to a precisely controlled temperature increase from 25 to 75° C. at a rate of 1° C./min. The Tt of ELPs is defined as the temperature at which the first derivative of the optical density with respect to the temperature reaches a maximum.

[2] = ATRA encapsulation in 4PA, two phase method, HPLC; assay type: physicochemical; settings: control ELP
From the text: FIG. 21: SDS PAGE was used to resolve the purified 4PA fusion protein. To formulate ATRA-loaded 4PA, a two phase encapsulation method was adopted. After removing undissolved drug, HPLC was used to quantify 4PA and ATRA concentrations. Encapsulation ratio, defined as CATRA/C4PA was 2.7, theoretical maximum being 4.

HeLa cells = experiment: HeLa cell uptake, co-localization with lysosomes (confocal microscopy); assay type: cell-based; settings: 30 μM rhodamine-labeled ELP; 120 min; LysoTracker Green
Experimental: Lysosomes were labeled by LysoTracker Green® having the structure:
In order to further validate the potential efficacy of CA192 working as a potent drug binding domain, an in vitro cell uptake study was performed. Briefly, CA192 and A192 was labeled with rhodamine and HeLa cell lysosome with LysoTracker Green (LTG)® having the structure as described herein. For the treatment group, HeLa cells were incubated with 30 μM of rhodamine-labeled (rh)-CA192 and 70 nM of LTG for 120 min. For the control group, HeLa cells were incubated with 30 μM of rhodamine-labeled (rh)-A192 and 70 nM of LTG for 120 min. Cells were then rinsed with warm HBSS three times, maintained in the fresh culture medium, and imaged by confocal microscopy. Images were acquired using a Zeiss laser scanning microscope 510 Meta NLO confocal imaging system equipped with Argon, red HeNe, green HeNe laser, and a Coherent Chameleon Ti-Sapphire laser (LSM) mounted on a vibration-free table (Carl Zeiss, Thornwood, N.Y.). All images were acquired using a Plan-Apochromat 63× Oil immersion lens with a working distance of 0.19 mm.

[3] = Dynamic light scattering (DLS) hydrodynamic radius and stability; assay type: physicochemical; settings: DLS intensity; 20 μM
Experimental: FIGS. 5A-5D: CA192 (SEQ ID NO: 3) has a good stability in terms of hydrodynamic radius. There are two fractions present in the CA192 (SEQ ID NO: 3) solution: an aggregated form and dimeric form. A dimerized form has similar hydrodynamic radius, Rh as A192. […] Drug-loaded CA192 (SEQ ID NO: 3) has a mean Rh of 64.5±0.5 nm (p<0.05). […] (FIG. 5C) Size Exclusion Chromatography (SEC) was conducted to fractionate CA192 (SEQ ID NO: 3) depending on their particle size. Two fractions were observed. […] In contrast, the fraction 1 contains a mixture of larger aggregates.
The hydrodynamic radius (Rh) of both the loaded and unloaded fusion protein, along with plain A192, was measured via dynamic light scattering (DLS) using a DynaPro Plate Reader II from Wyatt Technology. Before the DLS measurement, solutions were filtered through […] pore size filters. The concentration of each solution was then adjusted to 20 μM. 60 μL from each sample was pipetted into three different wells on the plate reader and covered by 15 μL mineral oil each to avoid solvent evaporation. […] Briefly, the fusion solution was incubated at 37° C. for different periods of time up to 48 h and the mean Rh of CA192 at these different time points was measured with DLS. […] (FIG. 5D) Through measuring the CA192 concentration of both fractions, Applicants determined that 20.8% by mass in solution is represented by the multimerized particles. […]

B1: (VPGAG)192 (protein)
chain: VPGAGVPGAGVPGAGVPGAGVPGAGVPGAGVPGAGVPGAGVPGAGVPGAGVPGAGVPGAGVPGAGVPGAGVPGAGVPGAGVPGAGVPGAGVPGAGVPGAGVPGAGVPGAGVPGAGVPGAGVPGAGVPGAGVPGAGVPGAGVPGAGVPGAGVPGAGVPGAGVPGAGVPGAGVPGAGVPGAGVPGAGVPGAGVPGAGVPGAGVPGAGVPGAGVPGAGVPGAGVPGAGVPGAGVPGAGVPGAGVPGAGVPGAGVPGAGVPGAGVPGAGVPGAGVPGAGVPGAGVPGAGVPGAGVPGAGVPGAGVPGAGVPGAGVPGAGVPGAGVPGAGVPGAGVPGAGVPGAGVPGAGVPGAGVPGAGVPGAGVPGAGVPGAGVPGAGVPGAGVPGAGVPGAGVPGAGVPGAGVPGAGVPGAGVPGAGVPGAGVPGAGVPGAGVPGAGVPGAGVPGAGVPGAGVPGAGVPGAGVPGAGVPGAGVPGAGVPGAGVPGAGVPGAGVPGAGVPGAGVPGAGVPGAGVPGAGVPGAGVPGAGVPGAGVPGAGVPGAGVPGAGVPGAGVPGAGVPGAGVPGAGVPGAGVPGAGVPGAGVPGAGVPGAGVPGAGVPGAGVPGAGVPGAGVPGAGVPGAGVPGAGVPGAGVPGAGVPGAGVPGAGVPGAGVPGAGVPGAGVPGAGVPGAGVPGAGVPGAGVPGAGVPGAGVPGAGVPGAGVPGAGVPGAGVPGAGVPGAGVPGAGVPGAGVPGAGVPGAGVPGAGVPGAGVPGAGVPGAGVPGAGVPGAGVPGAGVPGAGVPGAGVPGAGVPGAGVPGAGVPGAGVPGAGVPGAGVPGAGVPGAGVPGAGVPGAGVPGAGVPGAGVPGAGVPGAGVPGAGVPGAGVPGAGVPGAGVPGAGVPGAGVPGAGVPGAGVPGAGVPGAGVPGAGVPGAGVPGAGVPGAGVPGAGVPGAGVPGAGVPGAGVPGAGVPGAGVPGAG
[1]; fit Tt = b - m Log10[CELP]
  Slope, m: 8.3 ± 0.28 ° C./Log10(μM)
[1]; intercept at 1 μM
  Intercept, b: 72.3 ± 0.41 °C
[2]
  ATRA peak on HPLC after encapsulation: not detectable
HeLa cells
  co-localization with lysosomes: obvious co-localization with lysosome; also recorded: co-localized with lysosomes; also recorded: co-localizing with lysosomes
[3]
  mean hydrodynamic radius (Rh): 7.3±0.6 nm and 7.3±0.4 nm
